This is an account of results in the supplement of paper PMC9732359.

The nature of this series: protein stability index of a GFP-peptide fusion (yeast GPS) (PSI 1-4); higher = more stable; sorted into four equal gates, so the index is relative within each strain. The essentials:
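The protein stability index of a peptide was calculated by multiplying its read frequency in each gate by that gate's number and adding the products. The peptides were tiled 17-residue stretches of yeast proteins, fused downstream of GFP on a Cherry-expressing plasmid and carried in yeast as a pooled library. Mid-log cultures in leucine-free medium were sorted into four equal gates by GFP/Cherry ratio, and each gate's plasmids were PCR-amplified and Illumina-sequenced.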

± gives the uncertainty stated by the source.

In the case of LESTKAETDYVDPKRLA [DSN1], the protein stability index by setting is: (doa10∆) 2.96 ± 0.063; (pdr5∆) 3.19 ± 0.067; (san1∆) 3.04 ± 0.053; (ubr1∆) 3.26 ± 0.075.

For LESYLIVHHPYQSLKQI [SSN8], the protein stability index (doa10∆) worked out at 2.33 ± 0.052, the protein stability index (pdr5∆) worked out at 2.46 ± 0.059, the protein stability index (san1∆) was 2.29 ± 0.053 and the protein stability index (ubr1∆) is 2.38 ± 0.044.

LETDGVNLSEVMTVPGI [RPO21]: the protein stability index worked out at 2.75 ± 0.19 (doa10∆), 3.36 ± 0.21 (pdr5∆), 3.03 ± 0.13 (san1∆) and 3.34 ± 0.14 (ubr1∆).

On to LEYMNTARINNRRLFKK [RRI2], for which the protein stability index reads like this: (doa10∆) 2.5 ± 0.08; (pdr5∆) 2.21 ± 0.072; (san1∆) 2.3 ± 0.083; (ubr1∆) 2.5 ± 0.075.

In the case of LEYYAMLSKTKVYYFQG [RPL30], the protein stability index was 2.4 ± 0.096 (doa10∆), 3.08 ± 0.1 (pdr5∆), 2.09 ± 0.079 (san1∆) and 2.89 ± 0.13 (ubr1∆).

In turn, LFAGYTDNVIRVWQVMT [ASC1] came in with a protein stability index (doa10∆) of 1.61 ± 0.064, a protein stability index (pdr5∆) of 2.07 ± 0.057, a protein stability index (san1∆) of 1.86 ± 0.099 and a protein stability index (ubr1∆) of 2.06 ± 0.066.

LFGQSQQPQTNTAPGLG [YGR119C/NUP57]: the protein stability index reads like this: (doa10∆) 2.68 ± 0.2; (pdr5∆) 2.88 ± 0.27; (san1∆) 3.14 ± 0.16; (ubr1∆) 2.97 ± 0.092.

For LFNKPPSTNAQNVNVPS [YOR098C/NUP1], the protein stability index was 3.15 ± 0.056 (doa10∆), 3.05 ± 0.051 (pdr5∆), 3.03 ± 0.046 (san1∆) and 3.12 ± 0.04 (ubr1∆).

Turning to LFPVAAQDSLTVTIASS [RPB8], the protein stability index amounted to 1.22 ± 0.053 (doa10∆), 1.48 ± 0.049 (pdr5∆), 1.32 ± 0.16 (san1∆) and 1.61 ± 0.041 (ubr1∆).

Consider LFQELSKVVDDMPSLRL [GRR1], for which the protein stability index (doa10∆) came to 3.2 ± 0.18, the protein stability index (pdr5∆) was determined as 1.61 ± 0.11, the protein stability index (san1∆) stood at 2.22 ± 0.12 and the protein stability index (ubr1∆) amounted to 2.31 ± 0.085.

On to LFQRQKLHEFYLLISKE [IRR1], for which the protein stability index is, setting by setting: (doa10∆) 2.69 ± 0.12; (pdr5∆) 2.97 ± 0.076; (san1∆) 2.63 ± 0.061; (ubr1∆) 2.87 ± 0.12.

For the sequence LFRIFSMSEEFKYVSVR [BRR2], the protein stability index is 2.39 ± 0.14 (doa10∆), 3.18 ± 0.15 (pdr5∆), 2.99 ± 0.18 (san1∆) and 3.29 ± 0.12 (ubr1∆).

Turning to LFSEKTIRYLMQKQHEM [SNF6], the protein stability index reads like this: (doa10∆) 2.63 ± 0.044; (pdr5∆) 2.55 ± 0.045; (san1∆) 2.44 ± 0.069; (ubr1∆) 2.66 ± 0.034.

LGAIEQILIFAADTSIV [YJL039C/NUP192]: the protein stability index was determined as 1.47 ± 0.09 (doa10∆), 2.02 ± 0.049 (pdr5∆), 1.72 ± 0.091 (san1∆) and 2.56 ± 0.099 (ubr1∆).

For the sequence LGAVAGLIPYPHHNQSP [RET1], the protein stability index is, setting by setting: (doa10∆) 2.65 ± 0.094; (pdr5∆) 2.97 ± 0.071; (san1∆) 2.69 ± 0.055; (ubr1∆) 2.94 ± 0.065.

For the sequence LGHTKAALGEVASMELK [SIR2], the protein stability index amounted to 2.79 ± 0.085 (doa10∆), 2.96 ± 0.077 (pdr5∆), 3.23 ± 0.064 (san1∆) and 2.98 ± 0.12 (ubr1∆).

LGIEAARYSIIREINYT [RPO31]: the protein stability index (doa10∆) stood at 1.76 ± 0.13, the protein stability index (pdr5∆) turned out to be 1.66 ± 0.12, the protein stability index (san1∆) was found to be 1.31 ± 0.24 and the protein stability index (ubr1∆) stood at 1.53 ± 0.12.

In the case of LGKQSSSLLSRLISSKM [FAS2], the protein stability index is, setting by setting: (doa10∆) 2.98 ± 0.065; (pdr5∆) 2.94 ± 0.065; (san1∆) 3.02 ± 0.078; (ubr1∆) 2.7 ± 0.048.

Turning to LGKRINSAVNNAISNTQ [SRP54], the protein stability index was 2.46 ± 0.099 (doa10∆), 3.19 ± 0.12 (pdr5∆), 2.91 ± 0.096 (san1∆) and 3.12 ± 0.097 (ubr1∆).

LGKRSILAAAHRDAYSG [PRE2] displayed a protein stability index (doa10∆) of 2.93 ± 0.2, a protein stability index (pdr5∆) of 3.26 ± 0.2, a protein stability index (san1∆) of 2.33 ± 0.18 and a protein stability index (ubr1∆) of 2.85 ± 0.083.

Take LGKYEFSKILPAALDGL [ESC2]: the protein stability index reads like this: (doa10∆) 2.28 ± 0.055; (pdr5∆) 2.67 ± 0.072; (san1∆) 1.61 ± 0.13; (ubr1∆) 2 ± 0.086.

On to LGLCCLLDVKLAIDNMY [YCG1], for which the protein stability index runs as follows: (doa10∆) 1.52 ± 0.045; (pdr5∆) 1.51 ± 0.04; (san1∆) 1.78 ± 0.067; (ubr1∆) 1.88 ± 0.044.

Turning to LGLLLPIAASTDLPIET [RPN1], the protein stability index runs as follows: (doa10∆) 1.67 ± 0.049; (pdr5∆) 2 ± 0.065; (san1∆) 1.79 ± 0.076; (ubr1∆) 2.17 ± 0.055.

LGNSIVKESNNYYSNKS [REC8]: the protein stability index turned out to be 2.68 ± 0.15 (doa10∆) and 2.94 ± 0.3 (san1∆).

As to LGRLVKAGKITTIEEIF [RPS2], the protein stability index reads like this: (doa10∆) 2.03 ± 0.099; (pdr5∆) 2.29 ± 0.12; (san1∆) 2.16 ± 0.14; (ubr1∆) 2.25 ± 0.12.
